13 molecules from patent US20260297176 (published 2026) can be followed below.

Positions count from the first letter of the chain named. Names and notes keep the numbering of the source.

For experiment [1], the target named is T1, human IL-11 (human).
T1 chain: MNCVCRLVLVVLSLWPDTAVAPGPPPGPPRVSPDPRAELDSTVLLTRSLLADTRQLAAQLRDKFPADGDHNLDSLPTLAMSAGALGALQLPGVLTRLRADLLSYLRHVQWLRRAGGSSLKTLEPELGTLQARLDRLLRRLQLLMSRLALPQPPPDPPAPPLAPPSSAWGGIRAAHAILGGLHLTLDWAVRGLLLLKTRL
The experiment is described as follows: SPR.

The target of experiment [2] is T2, mouse IL-11 (mouse, UniProt P47873).
T2 chain: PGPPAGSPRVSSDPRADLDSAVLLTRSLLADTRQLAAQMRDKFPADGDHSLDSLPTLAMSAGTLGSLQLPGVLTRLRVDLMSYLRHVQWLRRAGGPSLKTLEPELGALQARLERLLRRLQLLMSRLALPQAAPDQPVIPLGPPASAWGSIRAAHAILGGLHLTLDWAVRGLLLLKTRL
The experiment is described as follows: SPR.

Experiment [3] has as its target T1, human IL-11. The experiment is described as follows: SPR 25C.
Experiment [4] has as its target T2, mouse IL-11. Nature of the experiment: SPR.
In experiment [5] the target is T1, human IL-11. Nature of the experiment: SPR.
The target in experiment [6] is T1, human IL-11. Nature of the experiment: SPR.
Experiment [7] has as its target T2, mouse IL-11. Nature of the experiment: SPR steady state.

B1: CSJ-A-s-10D10 (antibody, V domains shown)
VH: QVQLKESGPGLVQPSQTLSLTCTVSGFSLTNYHVHWVRQPPGKGLEWMGVMWIDGDTSYNSALRSRLSISRDTSKSQVFLKMSSLQTEDTATYYCAREGLNWFAYWGRGTLVTVSS
VL: DIQMTQSPASLSVSLEEVVTITCKASQGIDDYLSWYQQKPGKSPQLLISDVTSLADGVPSRFSGSRSGTQYSLKISRPQVDDSGIYYCLQSYSTPYTFGAGTKLELK
Regarding B1, the equilibrium dissociation constant (Kd) in experiment [1] is 0.424 nM; in experiment [2] it was 0.875 nM.

B2: GVH5 (D54E)/GVL5 (antibody, V domains shown)
VH: QITLKESGPTLVKPTQTLTLTCTFSGFSLSTSGMVVGWIRQPPGKALEWLAAIDWEGEKYYSPSLKSRLTITKDTSKNQVVLTMTNMDPVDTATYYCARSGNYFEYWGQGTLVTVSS
VL: DIQMTQSPSSLSASVGDRVTITCRTSEDIYNALAWYQQKPGKAPQLLIYDANRLHIGVPSRFSGSGSGTDFTLTISSLQPEDFATYYCQQYYDYPNTFGQGTKLEIK
As to B2, the Kd in experiment [3] came out at 96.6 pM.

B3: GVH5 (D54E)/CVL3 (antibody, V domains shown)
VH: B2 VH
VL: B2 VL with I2N, S60D, P80A, F83V, T85V
With B3, in experiment [3], the Kd was 18.1 pM. Against the preceding molecule, the Kd is about 5.3-fold lower.

B4: CVH3 (D54E)/CVL3 + YTE (antibody, V domains shown)
VH: QVQLQESGPGLVKPSQTLSLTCSFSGFSLSTSGMVVSWIRQPPGKALEWLAAIDWEGEKYYNPSLKSRLTVTKDTSNTQVVLTMTNMDPVDTATYYCARSGNYFEYWGQGTLVTVSS
VL: B2 VL with I2N, S60D, P80A, F83V, T85V
On to B4, for which binding in experiment [3] was put at a Kd of 1.42 pM. Against the preceding molecule, the Kd is about 13-fold lower.

B5: CVH3 (D54E)/CVL3 (antibody, V domains shown)
VH: B4 VH
VL: B2 VL with I2N, S60D, P80A, F83V, T85V
Molecule B5 returned a Kd in experiment [3] of 5.01 pM.

B6: GVH5 (D54E)/CVL3 + YTE (antibody, V domains shown)
VH: B2 VH
VL: B2 VL with I2N, S60D, P80A, F83V, T85V
Turning to B6, binding in experiment [3] was characterised by a dissociation constant (Kd) of 9.89 pM.

B7: CVH4 (D54E)/CVL3 + YTE (antibody, V domains shown)
VH: B4 VH with N77K, T78N
VL: B2 VL with I2N, S60D, P80A, F83V, T85V
B7: in experiment [3], the Kd was 3.34 pM. Compared with the last molecule, the Kd is about 3-fold lower.

B8: GVH5 (D54E)/GVL5 + YTE (antibody, V domains shown)
VH: B2 VH
VL: B2 VL
Consider B8, for which, in experiment [3], the Kd came to 79.2 pM.

B9: CVH4 (D54E)/CVL3 (antibody, V domains shown)
VH: B4 VH with N77K, T78N
VL: B2 VL with I2N, S60D, P80A, F83V, T85V
In the case of B9, binding in experiment [3] was characterised by a dissociation constant (Kd) of 7.48 pM.

B10: CSJ-B-s-3G8 (antibody, V domains shown)
VH: QVTLKESGPGMLQPSKTVSLTCSFSGFSMSTSGMVVSWIRQPSGKSLEWLAAIDWDGEKYYNPSLKSRLTVSKDTSNTQVFLKISSVDIADSATYYCARSGNYFDYWGQGVMVTVSS
VL: DIQMTQSPASLSASLGETVTIECRASEDIYNGLVWYQQKPGKSPQLLIYDANRLHTGVPSRFSGGGSGTQYSLKINSLQSEDVASYFCQQYYDYPNTFGAGTKLELK
With B10, the Kd is 0.0174 nM in experiment [1], 0.0502 nM in experiment [2] and 0.159 nM in experiment [4].

B11: VH0/VL0 (antibody, V domains shown)
VH: B10 VH with T3I, V18L, M29L, K83Q, S85T, S86T, S92T, D105E, M112I
VL: B10 VL with I2N, A25T, G32A, V34A, T56I, G65S, Y71F, K107N
On to B11, for which, in experiment [3], the Kd worked out at 7.58 pM.

B12: CSI-s-9B9 (antibody, V domains shown)
VH: EVHLQQSGPELVKPGASVKMSCKASGYTFTSYVIHWVKQRPGQGLEWIGNIYPYNDDTNYNEKFKGKATLTSDKSSSTAYMELSSLTSEESAVYFCTRERATYGDLAWFAYWGQGTLVTVSA
VL: NIVLTQSPASLAVSLGQRATISCRASENIDSYGNSFMHWYQQKPGQPPKLLIYLASILESGVPARFSGSGSRTDFTLTIDPVEADDAATYYCQQNNEDPYTFGGGTKLEIK
Consider B12, for which the results for the Kd in experiment [1] and in experiment [2] were 0.145 nM and 3.77 nM, respectively.

B13: CSJ-A-s-2B11 (antibody, V domains shown)
VH: QVQLKESGPGLVQPSQTLSLTCTVSGFSLDNYNVHWVRQPTGGGLEWLGGIWTDGITDYTSPLRSRLSISRDTSKSQVFLKMKSLQTEDIATYYCARSYYYSLYYFDYWGQGVMVTVSS
VL: DIQMTQSPASLSASLGETVTIECRASEDIYSNLAWYQQKPGDSPQLLIYDAHRLAEGVPSRFSGSGSGTQYSLKINSLHSEDVASYFCQQYDNYNTFGVGTKLDLK
B13: the Kd stood at 0.0214 nM in experiment [5]; 0.0213 nM in experiment [6]; 28.2 nM in experiment [7]; 0.0238 nM in experiment [1]; 28.2 nM in experiment [2].
